Laboratory results: patent US20240116985A1, “STAPLED PEPTIDES AND METHODS THEREOF” (priority 2020, published 2024)
Starred links: 1 amine or outer side, 2 acyl side, 3 side chain; linkers in the order of their positions; H or OH if unused. Positions of bridges follow the written chain, without caps; N, C: chain ends. Non-standard residues stand in square brackets, D forms with d. Primed or numbered codes have the meaning given here. *: point of attachment. PyrS2″ = (S)-3-amino-1-((pent-4-en-1-yloxy)carbonyl)pyrrolidine-3-carboxylic acid (stapling residue), C=CCCCOC(=O)N1CC[C@@](N[*:1])(C(=O)[*:2])C1; B5(4) = 2,2-bis(4-pentenyl)glycine = 2-amino-2-(pent-4-en-1-yl)hept-6-enoic acid (stitching residue), C=CCCCC(CCCC=C)(N[*:1])C(=O)[*:2]; B5(5) = 2,2-bis(4-pentenyl)glycine, 2-amino-2-(pent-4-en-1-yl)hept-6-enoic acid (stitching residue), C=CCCCC(CCCC=C)(N[*:1])C(=O)[*:2]; PyrS2 = (S)-3-amino-1-((pent-4-en-1-yloxy)carbonyl)pyrrolidine-3-carboxylic acid, C=CCCCOC(=O)N1CC[C@@](N[*:1])(C(=O)[*:2])C1; SPip2 = 4-amino-1-((pent-4-en-1-yloxy)carbonyl)piperidine-4-carboxylic acid, C=CCCCOC(=O)N1CCC(N[*:1])(C(=O)[*:2])CC1; SPip3 = 4-amino-1-((hex-5-en-1-yloxy)carbonyl)piperidine-4-carboxylic acid, C=CCCCCOC(=O)N1CCC(N[*:1])(C(=O)[*:2])CC1; SPip1 = 4-amino-1-((but-3-en-1-yloxy)carbonyl)piperidine-4-carboxylic acid, C=CCCOC(=O)N1CCC(N[*:1])(C(=O)[*:2])CC1; B5(25) = 2-amino-2-(pent-4-en-1-yl)hept-6-enoic acid (stitching residue), C=CCCCC(CCCC=C)(N[*:1])C(=O)[*:2]; B5 = 2-amino-2-(pent-4-en-1-yl)hept-6-enoic acid, C=CCCCC(CCCC=C)(N[*:1])C(=O)[*:2]; Phe(3-COOH) = N[C@@H](Cc1cccc(C(=O)O)c1)C(=O)O; Phe(2-CF3) = N[C@@H](Cc1ccccc1C(F)(F)F)C(=O)O; Phe(3-Br) = N[C@@H](Cc1cccc(Br)c1)C(=O)O; Phe(2-Cl) = N[C@@H](Cc1ccccc1Cl)C(=O)O; 2Nal = N[C@@H](Cc1ccc2ccccc2c1)C(=O)O; Bta = N[C@@H](Cc1csc2ccccc12)C(=O)O; αAllylPro = C=CC[C@@]1(C(=O)O)CCCN1; tBuAla = CC(C)(C)C[C@H](N)C(=O)O; 3Thi = N[C@@H](Cc1ccsc1)C(=O)O; R5 = C=CCCC[C@@](C)(N)C(=O)O; Propioloyl = C#CC(=O)*; Aib = CC(C)(N)C(=O)O

B1: I-2416 (peptide)
peptide: Ac-[αAllylPro]D[tBuAla][B5(5)]NT[Aib]AFN[PyrS2″][3Thi][Bta]T-NH2
modifications: staple 1-4, 4-11
B2: I-2403 (peptide)
peptide: Propioloyl-[αAllylPro]D[tBuAla][B5(5)]D[Phe(3-COOH)]AAFL[PyrS2″][Phe(2-Cl)][Bta]A-NH2
modifications: staple 1-4, 4-11
B3: I-2396 (peptide)
peptide: Ac-[αAllylPro]D[tBuAla][B5(5)]D[Phe(3-COOH)]AAFL[PyrS2][Phe(2-CF3)][Bta]QL[dL]-NH2
modifications: staple 1-4, 4-11
B4: I-2407 (peptide)
peptide: Ac-[αAllylPro]D[tBuAla][B5(5)]NT[Aib]AFR[PyrS2][3Thi][Bta]Q-NH2
modifications: staple 1-4, 4-11
B5: I-2410 (peptide)
peptide: Ac-[αAllylPro]D[tBuAla][B5(5)]NT[Aib]AFH[PyrS2″][3Thi][Bta]Q-NH2
modifications: staple 1-4, 4-11
B6: I-2409 (peptide)
peptide: Ac-[αAllylPro]D[tBuAla][B5(5)]NT[Aib]AFT[PyrS2][3Thi][Bta]Q-NH2
modifications: staple 1-4, 4-11
B7: I-2401 (peptide)
peptide: Ac-[αAllylPro]D[tBuAla][B5(5)]D[Phe(3-COOH)]AAFL[PyrS2][Phe(2-CF3)][Bta]QVA-NH2
modifications: staple 1-4, 4-11
B8: I-2397 (peptide)
peptide: Ac-[αAllylPro]D[tBuAla][B5(5)]D[Phe(3-COOH)]AAFL[PyrS2][Phe(2-CF3)][Bta]QL[dT]-NH2
modifications: staple 1-4, 4-11
B9: I-2415 (peptide)
peptide: Ac-[αAllylPro]D[tBuAla][B5(5)]NT[Aib]AFN[PyrS2″][3Thi][Bta]N-NH2
modifications: staple 1-4, 4-11
B10: I-2399 (peptide)
peptide: Ac-[αAllylPro]D[tBuAla][B5(5)]D[Phe(3-COOH)]AAFL[PyrS2][Phe(2-CF3)][Bta]QAA-NH2
modifications: staple 1-4, 4-11
B11: I-2414 (peptide)
peptide: Ac-[αAllylPro]D[tBuAla][B5(5)]NT[Aib]AFN[PyrS2″][3Thi][Bta]H-NH2
modifications: staple 1-4, 4-11
B12: I-2402 (peptide)
peptide: propiolyl-[αAllylPro]D[tBuAla][B5(5)]DDAAFQ[PyrS2][3Thi][Bta]H-NH2
modifications: staple 1-4, 4-11
B13: I-2400 (peptide)
peptide: Ac-[αAllylPro]D[tBuAla][B5(5)]D[Phe(3-COOH)]AAFL[PyrS2][Phe(2-CF3)][Bta]QFA-NH2
modifications: staple 1-4, 4-11
B14: I-2574 (peptide)
peptide: Ac-[R5]AD[tBuAla][B5(25)]D[Phe(3-COOH)]AAFL[PyrS2″][Phe(2-CF3)][Bta]Q-NH2
modifications: staple 1-5, 5-12 (inferred); also: staple -CH=CH- reduced to -CH2-CH2-
B15: I-2585 (peptide)
peptide: Ac-[αAllylPro]D[tBuAla][B5]D[Phe(3-COOH)]QAFL[SPip2][Phe(2-CF3)][Bta]A-NH2
modifications: staple 1-4, 4-11; not fully specified; printed as Ac-PL3-Asp-Npg-B5-Asp-3COOHF-Gln-Ala-Phe-Leu-SPip2-2F3MeF-BztA-Ala-NH2; also: earlier-eluting staple isomer composition
B16: I-2587 (peptide)
peptide: Ac-[αAllylPro]D[tBuAla][B5]D[Phe(3-COOH)]QAFL[SPip3][Phe(2-CF3)][Bta]A-NH2
modifications: staple 1-4, 4-11; not fully specified; printed as Ac-PL3-Asp-Npg-B5-Asp-3COOHF-Gln-Ala-Phe-Leu-SPip3-2F3MeF-BztA-Ala-NH2
B17: I-2575 (peptide)
peptide: Ac-P[R5]ED[tBuAla][B5(25)]D[Phe(3-COOH)]AAFL[PyrS2″][Phe(2-CF3)][Bta]Q-NH2
modifications: staple 6-13, 2-6 (inferred); not fully specified; printed as Ac-Pro-R5-Glu-Asp-Npg-B5-Asp-3COOHF-Ala-Ala-Phe-Leu-PyrS2-2F3MeF-BztA-Gln-NH2
B18: I-2584 (peptide)
peptide: Ac-[αAllylPro]D[tBuAla][B5]D[Phe(3-COOH)]QAFL[SPip1][Phe(2-CF3)][Bta]A-NH2
modifications: staple 1-4, 4-11; not fully specified; printed as Ac-PL3-Asp-Npg-B5-Asp-3COOHF-Gln-Ala-Phe-Leu-SPip1-2F3MeF-BztA-Ala-NH2
B19: I-2586 (peptide)
peptide: Ac-[αAllylPro]D[tBuAla][B5]D[Phe(3-COOH)]QAFL[SPip2][Phe(2-CF3)][Bta]A-NH2
modifications: staple 1-4, 4-11; not fully specified; printed as Ac-PL3-Asp-Npg-B5-Asp-3COOHF-Gln-Ala-Phe-Leu-SPip2-2F3MeF-BztA-Ala-NH2; also: later-eluting staple isomer composition
B20: I-2314 (peptide)
peptide: Ac-[αAllylPro]D[tBuAla][B5(4)]D[Phe(3-COOH)]QAFV[PyrS2″][3Thi][SbMe2NapA]A-NH2
modifications: staple 1-4, 4-11
B21: I-2312 (peptide)
peptide: Ac-[αAllylPro]D[tBuAla][B5(4)]D[Phe(3-COOH)]QAFV[PyrS2″][3Thi][RbMe2NapA]A-NH2
modifications: staple 1-4, 4-11
B22: I-2307 (peptide)
peptide: Ac-[αAllylPro]D[tBuAla][B5(4)]D[Phe(3-COOH)]AAFL[PyrS2″][3Thi][Phe(3-Br)]Q-NH2
modifications: staple 1-4, 4-11
B23: I-2310 (peptide)
peptide: Ac-[αAllylPro]D[tBuAla][B5(4)]D[Phe(3-COOH)]QAFV[PyrS2″][3Thi][2Nal]A-NH2
modifications: staple 1-4, 4-11

Biological target: full-length beta-Catenin (Uniprot ID P35222) (Homo sapiens (Human)) (UniProt P35222)
Test: fluorescence polarization competition; full-length beta-catenin, competitor 5FAM-TCF4(10-53) probe
Target sequence in this assay (P35222 2-781 limits assumed): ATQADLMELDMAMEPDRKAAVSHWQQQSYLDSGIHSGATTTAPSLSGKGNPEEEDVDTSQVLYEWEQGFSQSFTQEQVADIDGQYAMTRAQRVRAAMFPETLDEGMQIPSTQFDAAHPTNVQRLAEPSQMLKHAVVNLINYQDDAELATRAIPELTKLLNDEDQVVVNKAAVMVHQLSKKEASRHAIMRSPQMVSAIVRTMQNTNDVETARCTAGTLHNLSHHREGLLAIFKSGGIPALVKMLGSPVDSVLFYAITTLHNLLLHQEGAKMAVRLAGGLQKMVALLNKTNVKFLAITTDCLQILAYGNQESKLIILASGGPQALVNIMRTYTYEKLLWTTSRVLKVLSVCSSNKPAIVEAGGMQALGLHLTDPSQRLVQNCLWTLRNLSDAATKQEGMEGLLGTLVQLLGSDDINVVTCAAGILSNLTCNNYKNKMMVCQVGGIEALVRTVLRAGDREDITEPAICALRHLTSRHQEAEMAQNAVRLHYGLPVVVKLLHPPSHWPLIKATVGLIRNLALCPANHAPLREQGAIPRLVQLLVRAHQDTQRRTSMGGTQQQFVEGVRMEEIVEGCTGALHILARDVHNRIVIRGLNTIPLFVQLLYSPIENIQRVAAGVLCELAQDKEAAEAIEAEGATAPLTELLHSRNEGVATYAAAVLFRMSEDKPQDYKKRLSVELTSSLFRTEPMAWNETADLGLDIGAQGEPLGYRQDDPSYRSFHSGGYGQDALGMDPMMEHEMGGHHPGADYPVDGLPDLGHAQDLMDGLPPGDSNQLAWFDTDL

Compared with B1, B2 is 11-fold lower in IC50: 133 nM for the first, 12 nM for the second. The second is the more potent here.

B3 and B4 are within 1.5-fold of each other in IC50: 187 nM for the first, 138 nM for the second.

B5 and B6 are within 1.5-fold of each other in IC50: 304 nM for the first, 397 nM for the second.

B7 and B8 are within 1.5-fold of each other in IC50: 37 nM for the first, 53 nM for the second.

Compared with B9, B10 is 8.6-fold lower in IC50: 147 nM for the first, 17 nM for the second.

First: B11
Second: B12
The IC50 of the first is 2.3-fold lower: 7 nM for the first, 16 nM for the second. The first is the more potent here.

B13 showed an IC50 of 142 nM.

Biological target: full-length beta-Catenin (Uniprot ID P35222) (Homo sapiens (Human)) (UniProt P35222)
Test: fluorescence polarization competition; full-length beta-catenin, 5FAM-TCF4 10-53 probe as competitor
Target sequence in this assay (P35222 whole entry, one chain of several): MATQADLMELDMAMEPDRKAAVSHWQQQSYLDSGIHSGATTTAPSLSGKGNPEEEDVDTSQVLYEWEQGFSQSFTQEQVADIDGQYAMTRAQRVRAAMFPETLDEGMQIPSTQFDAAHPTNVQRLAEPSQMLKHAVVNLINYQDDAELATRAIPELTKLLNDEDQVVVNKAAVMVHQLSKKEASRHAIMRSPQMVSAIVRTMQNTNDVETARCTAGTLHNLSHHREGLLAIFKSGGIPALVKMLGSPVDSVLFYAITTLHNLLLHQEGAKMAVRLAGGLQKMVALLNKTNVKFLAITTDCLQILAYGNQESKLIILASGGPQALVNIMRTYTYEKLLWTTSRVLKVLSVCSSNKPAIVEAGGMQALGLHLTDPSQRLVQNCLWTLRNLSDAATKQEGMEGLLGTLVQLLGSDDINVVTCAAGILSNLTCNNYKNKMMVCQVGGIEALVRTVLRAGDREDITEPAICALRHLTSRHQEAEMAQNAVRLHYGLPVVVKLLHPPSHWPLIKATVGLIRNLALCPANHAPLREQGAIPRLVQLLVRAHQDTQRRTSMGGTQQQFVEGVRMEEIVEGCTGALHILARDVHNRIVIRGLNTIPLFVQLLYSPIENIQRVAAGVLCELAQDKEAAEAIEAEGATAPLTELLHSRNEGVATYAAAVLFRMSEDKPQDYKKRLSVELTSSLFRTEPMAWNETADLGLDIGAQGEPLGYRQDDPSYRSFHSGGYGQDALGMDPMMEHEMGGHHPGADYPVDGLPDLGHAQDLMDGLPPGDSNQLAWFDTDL

Compared with B14, B15 is 6.5-fold lower in IC50: 2960 nM for the first, 452 nM for the second.

First: B16
Second: B17
The IC50 of the first is 30-fold lower: 273 nM for the first, 8160 nM for the second.

Compared with B18, B19 is 5.3-fold lower in IC50: 1840 nM for the first, 345 nM for the second.

Biological target: Bcat-Halo (UniProt P35222)
Test: NanoBRET Abs IC50, HEK293 cells, Bcat-Halo / TCF4-Luc

Sequence of Bcat-Halo (P35222 whole entry): as the sequence (P35222 whole entry, one chain of several) above

First: B20
Second: B21
The IC50 of the first is higher: greater than 20000 nM for the first, 5200 nM for the second. The second is the more potent here.

B22 and B23 are the same in IC50: 8900 nM for the first, 8900 nM for the second.

Biological target: B-cat-Halo (beta-catenin HaloTag NanoBRET construct expressed in HEK293 cells) (UniProt P35222)
Test: NanoBRET in HEK293 cells, Bcat-Halo / TCF4-Luc (competitor TCF4-Luc); absolute IC50

Sequence of B-cat-Halo (beta-catenin HaloTag NanoBRET construct expressed in HEK293 cells) (P35222 whole entry): as the sequence (P35222 whole entry, one chain of several) above

B1 and B2 cannot be ordered by IC50: greater than 20000 nM for the first, greater than 20000 nM for the second.

First: B3
Second: B4
The IC50 of the first is lower: 8300 nM for the first, greater than 20000 nM for the second.

B5 and B6 cannot be ordered by IC50: greater than 20000 nM for the first, 50000 nM for the second.

Compared with B7, B8 is 1.8-fold higher in IC50: 4400 nM for the first, 7800 nM for the second.

Going from B9 to B10, the IC50 falls from greater than 20000 nM to 2800 nM. The second is the more potent here.

B11 and B12 cannot be ordered by IC50: greater than 20000 nM for the first, greater than 20000 nM for the second.

B13 gave an IC50 of 2500 nM.

Biological target: full-length beta-Catenin (Uniprot ID P35222) (Homo sapiens (Human)) (UniProt P35222)
Test: fluorescence polarization competition against 5FAM-TCF4(10-53), full-length beta-catenin
Target sequence in this assay (P35222 whole entry, one chain of several): as above

Going from B20 to B21, the IC50 falls from 48 nM to 5 nM (9.6-fold). The second is the more potent here.

B22 and B23 are within 1.5-fold of each other in IC50: 16 nM for the first, 18 nM for the second.
